Targets include BLM642-1290 R959A (UniProt P54132 642-1290, R959A); BLM642-1290 Q975V (UniProt P54132 642-1290, Q975V); BLM642-1290 H798A (UniProt P54132 642-1290, H798A); BLM642-1290 R979A (UniProt P54132 642-1290, R979A); BLM642-1290 R982A (UniProt P54132 642-1290, R982A); BLM642-1290 (UniProt P54132 642-1290); BLM642-1290 R979/982A (UniProt P54132 642-1290, R979A;R982A).
Test in all cases: fluorescence anisotropy

Sequence of BLM642-1290 Q975V (P54132 642-1290 Q975V): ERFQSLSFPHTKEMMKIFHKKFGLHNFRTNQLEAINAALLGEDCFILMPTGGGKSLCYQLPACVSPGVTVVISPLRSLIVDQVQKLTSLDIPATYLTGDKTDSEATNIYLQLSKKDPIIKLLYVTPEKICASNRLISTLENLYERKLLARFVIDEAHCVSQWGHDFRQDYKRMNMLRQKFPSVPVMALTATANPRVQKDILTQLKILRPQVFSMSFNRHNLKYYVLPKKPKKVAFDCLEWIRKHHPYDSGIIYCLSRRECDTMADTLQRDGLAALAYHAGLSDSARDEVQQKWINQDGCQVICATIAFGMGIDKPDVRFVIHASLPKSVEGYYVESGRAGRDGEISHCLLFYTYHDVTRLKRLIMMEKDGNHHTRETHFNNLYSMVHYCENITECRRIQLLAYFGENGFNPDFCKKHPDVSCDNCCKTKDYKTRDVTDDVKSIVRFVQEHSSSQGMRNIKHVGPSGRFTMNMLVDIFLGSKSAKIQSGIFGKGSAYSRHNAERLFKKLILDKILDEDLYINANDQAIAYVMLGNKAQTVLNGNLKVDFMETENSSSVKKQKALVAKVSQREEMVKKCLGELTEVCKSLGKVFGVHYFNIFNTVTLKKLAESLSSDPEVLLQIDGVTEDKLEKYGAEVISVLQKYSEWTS
Sequence of BLM642-1290 R979/982A (P54132 642-1290 R979A/R982A): as the sequence (P54132 642-1290 Q975V) above, with V334Q, R338A, R341A counted along it
Sequence of BLM642-1290 (P54132 642-1290): as the sequence (P54132 642-1290 Q975V) above, with V334Q counted along it
Sequence of BLM642-1290 H798A (P54132 642-1290 H798A): as the sequence (P54132 642-1290 Q975V) above, with H157A, V334Q counted along it
Sequence of BLM642-1290 R979A (P54132 642-1290 R979A): as the sequence (P54132 642-1290 Q975V) above, with V334Q, R338A counted along it
Sequence of BLM642-1290 R982A (P54132 642-1290 R982A): as the sequence (P54132 642-1290 Q975V) above, with V334Q, R341A counted along it
Sequence of BLM642-1290 R959A (P54132 642-1290 R959A): as the sequence (P54132 642-1290 Q975V) above, with R318A, V334Q counted along it

On to GGGTTAGGGTTAGGGTTAGGG (ssDNA) [oligonucleotide D (21-mer)], for which the Kd amounted to 4.15 ± 0.4 nM with BLM642-1290 R959A; 3.31 ± 0.4 nM with BLM642-1290 Q975V; 5.03 ± 0.55 nM in the data set with BLM642-1290 H798A; 1.91 ± 0.46 nM in the data set with BLM642-1290 R979A; 2.13 ± 0.32 nM with BLM642-1290 R982A; 1.11 ± 0.11 nM in the data set with BLM642-1290. Binding in the data set with BLM642-1290 R979/982A was put at a Kd of 1.32 ± 0.49 nM.

These data come from publication PMC2094072.
